Data published in patent US20250257112A1 (SHIRE NPS PHARMACEUTICALS, published 2025).

Biological target: PTH receptor ("PTHIR")
Experiment: cell-based or functional assay

cAMP potency (EC50): 0.24 nM
B1: PTH(1-84) (ligand)
chain: SVSEIQLMHNLGKHLNSMERVEWLRKKLQDVHNFVALGAPLAPRDAGSQRPRKKEDNVLVESHEKSLGEADKADVNVLTKAKSQ
